Experimental findings from US20240123070A1 (SHANGHAI GENBASE BIOTECHNOLOGY, published 2024) are described below.

This assay concerns the target KRAS G13D antigen (G13D-RT6, SEQ ID NO: 20) loaded on Lovo-DPA0301:DPB0501 cells (human). Nature of the assay: cell-based or functional assay.

B1: B8.2.4 TCR mutant β97V-G (TCR, V domains shown)
V domain 1: AQKITQTQPGMFVQEKEAVTLDCTYDTSDPSYGLFWYKQPSSGEMIFLIYQGSYDQQNATEGRYSLNFQKARKSANLVISASQLGDSAMYFCAMRERTGTASKLTFGTGTRLQVTL
V domain 2: DVKVTQSSRYLVKRTGEKVFLECVQDMDHENMFWYRQDPGLGLRLIYFSYDVKMKEKGDIPEGYSVSREKKERFSLILESASTNQTSMYLCASSQTGPPQHFGDGTRLSILE
B1: the “TCR Mut RLU/WT RLU” value amounted to 0.26 ratio.

B2: B8.2.4 TCR mutant β97V-Q (TCR, V domains shown)
V domain 1: AQKITQTQPGMFVQEKEAVTLDCTYDTSDPSYGLFWYKQPSSGEMIFLIYQGSYDQQNATEGRYSLNFQKARKSANLVISASQLGDSAMYFCAMRERTGTASKLTFGTGTRLQVTL
V domain 2: DVKVTQSSRYLVKRTGEKVFLECVQDMDHENMFWYRQDPGLGLRLIYFSYDVKMKEKGDIPEGYSVSREKKERFSLILESASTNQTSMYLCASSQTQPPQHFGDGTRLSILE
For the molecule B2, the “TCR Mut RLU/WT RLU” value stood at 0.3 ratio.

B3: B8.2.4 TCR mutant β97V-P (TCR, V domains shown)
V domain 1: AQKITQTQPGMFVQEKEAVTLDCTYDTSDPSYGLFWYKQPSSGEMIFLIYQGSYDQQNATEGRYSLNFQKARKSANLVISASQLGDSAMYFCAMRERTGTASKLTFGTGTRLQVTL
V domain 2: DVKVTQSSRYLVKRTGEKVFLECVQDMDHENMFWYRQDPGLGLRLIYFSYDVKMKEKGDIPEGYSVSREKKERFSLILESASTNQTSMYLCASSQTPPPQHFGDGTRLSILE
For the molecule B3, the “TCR Mut RLU/WT RLU” value is 0.32 ratio.

B4: B8.2.4 TCR mutant β97V-L (TCR, V domains shown)
V domain 1: AQKITQTQPGMFVQEKEAVTLDCTYDTSDPSYGLFWYKQPSSGEMIFLIYQGSYDQQNATEGRYSLNFQKARKSANLVISASQLGDSAMYFCAMRERTGTASKLTFGTGTRLQVTL
V domain 2: DVKVTQSSRYLVKRTGEKVFLECVQDMDHENMFWYRQDPGLGLRLIYFSYDVKMKEKGDIPEGYSVSREKKERFSLILESASTNQTSMYLCASSQTLPPQHFGDGTRLSILE
As for B4, the “TCR Mut RLU/WT RLU” value amounted to 0.58 ratio.

B5: B8.2.4 TCR mutant β97V-H (TCR, V domains shown)
V domain 1: AQKITQTQPGMFVQEKEAVTLDCTYDTSDPSYGLFWYKQPSSGEMIFLIYQGSYDQQNATEGRYSLNFQKARKSANLVISASQLGDSAMYFCAMRERTGTASKLTFGTGTRLQVTL
V domain 2: DVKVTQSSRYLVKRTGEKVFLECVQDMDHENMFWYRQDPGLGLRLIYFSYDVKMKEKGDIPEGYSVSREKKERFSLILESASTNQTSMYLCASSQTHPPQHFGDGTRLSILE
As to B5, the “TCR Mut RLU/WT RLU” value was determined as 0.44 ratio.

B6: B8.2.4 TCR mutant β97V-S (TCR, V domains shown)
V domain 1: AQKITQTQPGMFVQEKEAVTLDCTYDTSDPSYGLFWYKQPSSGEMIFLIYQGSYDQQNATEGRYSLNFQKARKSANLVISASQLGDSAMYFCAMRERTGTASKLTFGTGTRLQVTL
V domain 2: DVKVTQSSRYLVKRTGEKVFLECVQDMDHENMFWYRQDPGLGLRLIYFSYDVKMKEKGDIPEGYSVSREKKERFSLILESASTNQTSMYLCASSQTSPPQHFGDGTRLSILE
Regarding B6, the “TCR Mut RLU/WT RLU” value was 0.78 ratio.

B7: B8.2.4 TCR mutant β97V-M (TCR, V domains shown)
V domain 1: AQKITQTQPGMFVQEKEAVTLDCTYDTSDPSYGLFWYKQPSSGEMIFLIYQGSYDQQNATEGRYSLNFQKARKSANLVISASQLGDSAMYFCAMRERTGTASKLTFGTGTRLQVTL
V domain 2: DVKVTQSSRYLVKRTGEKVFLECVQDMDHENMFWYRQDPGLGLRLIYFSYDVKMKEKGDIPEGYSVSREKKERFSLILESASTNQTSMYLCASSQTMPPQHFGDGTRLSILE
B7: the “TCR Mut RLU/WT RLU” value was found to be 0.35 ratio.

B8: B8.2.4 TCR mutant β97V-I (TCR, V domains shown)
V domain 1: AQKITQTQPGMFVQEKEAVTLDCTYDTSDPSYGLFWYKQPSSGEMIFLIYQGSYDQQNATEGRYSLNFQKARKSANLVISASQLGDSAMYFCAMRERTGTASKLTFGTGTRLQVTL
V domain 2: DVKVTQSSRYLVKRTGEKVFLECVQDMDHENMFWYRQDPGLGLRLIYFSYDVKMKEKGDIPEGYSVSREKKERFSLILESASTNQTSMYLCASSQTIPPQHFGDGTRLSILE
Regarding B8, the “TCR Mut RLU/WT RLU” value was determined as 0.61 ratio.

B9: B8.2.4 TCR mutant β97V-N (TCR, V domains shown)
V domain 1: AQKITQTQPGMFVQEKEAVTLDCTYDTSDPSYGLFWYKQPSSGEMIFLIYQGSYDQQNATEGRYSLNFQKARKSANLVISASQLGDSAMYFCAMRERTGTASKLTFGTGTRLQVTL
V domain 2: DVKVTQSSRYLVKRTGEKVFLECVQDMDHENMFWYRQDPGLGLRLIYFSYDVKMKEKGDIPEGYSVSREKKERFSLILESASTNQTSMYLCASSQTNPPQHFGDGTRLSILE
For the molecule B9, the “TCR Mut RLU/WT RLU” value amounted to 0.26 ratio.

B10: B8.2.4 TCR mutant β97V-R (TCR, V domains shown)
V domain 1: AQKITQTQPGMFVQEKEAVTLDCTYDTSDPSYGLFWYKQPSSGEMIFLIYQGSYDQQNATEGRYSLNFQKARKSANLVISASQLGDSAMYFCAMRERTGTASKLTFGTGTRLQVTL
V domain 2: DVKVTQSSRYLVKRTGEKVFLECVQDMDHENMFWYRQDPGLGLRLIYFSYDVKMKEKGDIPEGYSVSREKKERFSLILESASTNQTSMYLCASSQTRPPQHFGDGTRLSILE
For B10, the “TCR Mut RLU/WT RLU” value was 0.37 ratio.

B11: B8.2.4 TCR mutant β97V-K (TCR, V domains shown)
V domain 1: AQKITQTQPGMFVQEKEAVTLDCTYDTSDPSYGLFWYKQPSSGEMIFLIYQGSYDQQNATEGRYSLNFQKARKSANLVISASQLGDSAMYFCAMRERTGTASKLTFGTGTRLQVTL
V domain 2: DVKVTQSSRYLVKRTGEKVFLECVQDMDHENMFWYRQDPGLGLRLIYFSYDVKMKEKGDIPEGYSVSREKKERFSLILESASTNQTSMYLCASSQTKPPQHFGDGTRLSILE
As for B11, the “TCR Mut RLU/WT RLU” value is 0.48 ratio.
